The record followed here is paper PMC5464773.

The target of this assay is Myc-tagged Bfl-1 (human) (UniProt Q16548). Nature of the assay: fluorescence polarisation; competition: 0–10 μM unlabeled peptide titrated into 50 nM c-myc-tagged receptor plus 25 nM fluoresceinated BIM; 25 mM Tris pH 7.8, 50 mM NaCl, 1 mM EDTA, 5% DMSO, 0.001% v/v Triton-X; 23°C, 3 hr; fit to a complete competitive binding model. (Fluorescence polarisation rises when a labelled molecule tumbles more slowly, as on binding a larger partner.)
Chain of Myc-tagged Bfl-1 (human) (Q16548 whole entry): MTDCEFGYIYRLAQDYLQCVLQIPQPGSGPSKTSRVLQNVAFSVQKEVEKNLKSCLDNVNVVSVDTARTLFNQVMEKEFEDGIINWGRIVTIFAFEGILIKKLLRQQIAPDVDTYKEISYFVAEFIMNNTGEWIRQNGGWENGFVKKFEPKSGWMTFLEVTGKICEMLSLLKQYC

Broadly, the Ki is a dissociation constant, usually derived from enzyme kinetics or from competition with a known ligand. “BIM BH3 peptide (unlabeled) (peptide; other documents disagree on this pair)”: the Ki was less than 100 pM.
